# From the RNAGym collection of RNA variant scans (doi:10.1073/pnas.2313332121)
# B1: TPR t1 (parent)
# chain: GACCAAUCUGCCCUCAGAGCUCGAGAACAUCUUCGGAUGCAGAGGAGGCAGGCUUCGGUGGCGCGAUAGCGCCAACGUCCUCAACCUCCAAUGCAUCCCACCACAUGAUGAUGCCUGAAGAGCCUUGGUUUUUUG
# Variants of: B1
# Assay: polymerase ribozyme fitness, log enrichment relative to wild type (log ratio); higher = more active; in vitro selection for triplet polymerase activity
# Method in brief: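 Each subunit of a heterodimeric triplet polymerase ribozyme was represented by a PCR-built, transcribed mutant library that underwent triplicate single-round in vitro selection with frozen incubation at −7 °C. Extended constructs were recovered by gel excision, streptavidin-bead capture and RT-PCR, and Illumina sequencing of input and output libraries kept genotypes with ≥10 input reads and ≥1 read per output. Fitness is the logarithm of genotype enrichment relative to wild-type enrichment, from inverse-variance-weighted replicate averages, with a logarithm base of 2.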
row,Variant,polymerase ribozyme fitness (log ratio)
1,G52U G63U A119G G120U A121U,-0.023
2,C53A U59C A121G,1.49
3,U54A G61A U106A C124U U129G,-0.685
4,C53U A111G,0.578
5,C53G C94U,-0.473
6,U54A C72G C104U G113A,-3.29
7,C53U C89A,-1.29
8,C53A G128A,-1.61
9,C53U G61C U106G C124G G135A,-0.0167
10,C53U U81C U96A,-2.89
11,C53U C72U U87G G117C,-3.81
12,C53U C114U,-1.76
13,C53G C56G C73A A84C,-2.01
14,U54A C62U,-1.02
15,U54A C62A,-0.751
16,C53U C72A A91G,-1.6
17,C53G C73A C102A G128C,-4.69
18,C53A G63U A74U C102G A103C A111G G117C,-6.88
19,C53A G63U C114U,-5.9
20,C53A C98U U112G,-3.36
21,C53U C62U U125A G128A U130A,-3.39
22,U54A C86U,0.24
23,C53G C97A,-5.66
24,C53U G71U U92A A119U C124U,-2.62

row,Variant,polymerase ribozyme fitness (log ratio)
1,C53G G57A G71A C94G C114A,-5.83
2,C53G C80U G128C,-2.66
3,C53U C62A G93C C104U,-1.76
4,G52U U81C,-1.74
5,C53A C72U C85U G122A,-0.784
6,C53A A66U,-1.07
7,C53U G69C,-1.01
8,U54A G61U U96C C99A,-5.82
9,U54A G71U C79U G93A C94U,-2.4
10,G52U U112G,-0.37
11,C53U C72G C79A,-1.72
12,C53A C79U C86U,-0.479
13,C53G U125C,-2.29
14,U54A G120A,0.0705
15,C53U C56G C76G U125A,-0.978
16,C53G U116A,-2.67
17,C53A C56A G69U G127U,-1.27
18,C53U C70U A74G G113C U133A,-2.94
19,C53A G69U,1.4
20,C53U U55G C104U,0.237
21,C53U G57U,0.599
22,C53G C79U,-1.64
23,G52U G63C U92A,-4.96
24,C53A G71A C115U,-3.94

row,Variant,polymerase ribozyme fitness (log ratio)
1,C53G G110A,-1.16
2,C53G C124A G127A,0.953
3,C53G G63C G127C,-1.19
4,U54A G58C C64U G110C,-5.03
5,G52U U55C C79U,-0.237
6,C53U C76U,-0.497
7,G52U U92A C104U,-4.43
8,C53A G60A C72A A91U U92G C97A C124A,-7.15
9,C53G A74G G117A,-1.73
10,U54A C98U U129G U133G,-3.2
11,C53G C72A U81A G120C C123G,-1.65
12,C53U C72U,-0.842
13,C53U C72A,0.143
14,C53U C72G,-0.46
15,C53G C64U A118G C123U,-1.6
16,C53A C56U U78C A118U G120C,0.115
17,C53U C101G U130A,-2.65
18,U54A U87A,-2.57
19,U54A C102G U112G,-6.74
20,C53U U126G,-1.77
21,C53G A75U C88A,-0.918
22,C53A G63A C115U,-3.96
23,C53G G71A G93C,-1.51
24,G52U U54G G69C,-4.27

row,Variant,polymerase ribozyme fitness (log ratio)
1,C53A G61U C72U U87C G127A,-1.15
2,C53A U59C,0.311
3,U54A G71U,-0.0584
4,C53A C56G G63C U106C,-0.653
5,C53A G110A,-0.6
6,G52U G63C,-0.581
7,G52U G63A,-1.95
8,C53U A108U,-6.86
9,G52U G61A G110U,-2
10,U54A C94U U109G,-5
11,C53U C72G C104A A121C,-0.137
12,C53G C101A A121U U126G,-0.329
13,C53A C70A,-1.81
14,U54A C73A C88A,-0.61
15,C53U G113A,-1.57
16,C53G G61C C82U G120A,0.391
17,C53G C72G,0.577
18,G52U U67G C101U G120C,-6.94
19,C53U C73G C89U U112G,-1
20,U54A C56A,0.502
21,C53U U54C A90G G122A,-0.961
22,C53A U55A G63A G71U G120C,-4.29
23,C53A C89U U131G,0.265
24,C53U C123A,1.2

row,Variant,polymerase ribozyme fitness (log ratio)
1,C53A G71C C86U,-3.57
2,G52U G71U,-0.703
3,C53G C70U C86U A119G,-0.0477
4,C53A C88G C104A U129A,-3.51
5,U54A G71C A83C G120U,-0.105
6,G52U U126G,-2.79
7,C53A G60A C85G,-1.1
8,C53U U78C C89U A95G C101G C114U U125A G128A,-5.82
9,G52U U92C C114G,-5.11
10,C53G G61A,-1.75
11,C53G C98G,-5.63
12,C53G U81C U106A,-4.71
13,C53G G69A C115A U116A,-5.69
14,U54A C104U C114G C115U,-5.34
15,C53A G61C,-4.19
16,C53G C76G A100U,-0.651
17,C53U G58U C70U,-0.221
18,G52U U55G C82A C89G,-3.64
19,G52U C124A,0.485
20,C53A C64U C99U U133G,-4.1
21,C53G C72G C123U,0.978
22,C53G G77U C86A,-1.02
23,U54A G63U,-0.939
24,C53A G71U C85A,-0.672

row,Variant,polymerase ribozyme fitness (log ratio)
1,C53U U132C,-0.221
2,C53A C72G U92C U126A U132A,-4.63
3,C53A U132A,-0.786
4,C53G U92C,-1.3
5,C53G U112C,0.934
6,C53U G63A U96A,-2.3
7,C53U A121C,2.13
8,C53U A121G,1.95
9,C53G C62A,-1.3
10,C53G C62U,-0.0991
11,C53A C73A U116A,-3.87
12,U54A C86U C97U C101G,-2
13,C53U C56G U116A G120C U133G,-1.3
14,C53U C79G G113C,-3.6
15,C53G U112G C114A G135U,-5.63
16,C53G U87G,-0.632
17,G52U U59C C85U C124U,-1.1
18,G52U G61U A118G U129A,-1.85
19,C53G G120C U125C,0.247
20,C53A C79A G117U,-4.98
21,C53G G63C G93C,-0.994
22,C53G A119G G128U,0.277
23,C53G C86A A119G G120U,-0.713
24,C53A G60A U78C,0.136

row,Variant,polymerase ribozyme fitness (log ratio)
1,C53A G57A G93C,-0.961
2,C53G C94A U132A,-1.31
3,C53G A74G,-1.52
4,C53U U96G G113C,-2.77
5,U54A U59A C80A C82G C123U,-2.88
6,C53U G71U C89U C115U,-3.54
7,U54A C82U,-0.0762
8,C53A U130G,-0.264
9,C53A U130C,0.592
10,C53U G60A A84C,-0.485
11,C53A C97A,-4.2
12,C53G U131G,-1.07
13,G52U G63A G93A,-1.45
14,C53A U106A G120U C123A,0.599
15,U54A A105U,-1.84
16,U54A C72A C73U A91C C115U U129A,-4.31
17,G52U G58C C79U,-0.312
18,U54A C72A C73U A91C C115U,-4.35
19,C53A C89U U106C,-0.0062
20,C53A C82G A118G,-0.931
21,C53A G63U C82A A83C U96C,-3.55
22,C53G U81G,-1.16
23,G52U U106C A118G,-0.754
